Laboratory results from US20230374132A1.

Columns and labels:
[1] = target: cynomolgus monkey CD3 E&D complex protein (Sino Biological Inc., CT032-00323H) (cynomolgus monkey) (UniProt Q95LI5); experiment: SPR, antigen on chip
[2] = target: human CD3E&G complex (Sino Biological Inc., CT041-H0305H) (human) (UniProt P07766); experiment: SPR, antigen on chip
Sequence of human CD3E&G complex (Sino Biological Inc., CT041-H0305H) (human) (P07766 23-126, chain 1 of 2): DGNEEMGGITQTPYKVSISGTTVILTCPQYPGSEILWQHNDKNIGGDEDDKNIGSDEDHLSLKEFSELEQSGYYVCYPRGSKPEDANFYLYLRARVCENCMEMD
Sequence of human CD3E&G complex (Sino Biological Inc., CT041-H0305H) (human) (P09693 23-116, chain 2 of 2, further chain): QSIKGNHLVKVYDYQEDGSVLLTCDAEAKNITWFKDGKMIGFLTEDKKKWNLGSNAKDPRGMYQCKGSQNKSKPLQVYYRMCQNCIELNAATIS

Sequence of cynomolgus monkey CD3 E&D complex protein (Sino Biological Inc., CT032-00323H) (cynomolgus monkey) (Q95LI5 22-117, chain 1 of 2): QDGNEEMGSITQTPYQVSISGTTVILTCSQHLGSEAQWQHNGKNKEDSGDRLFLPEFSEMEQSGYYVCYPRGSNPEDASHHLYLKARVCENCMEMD
Sequence of cynomolgus monkey CD3 E&D complex protein (Sino Biological Inc., CT032-00323H) (cynomolgus monkey) (Q95LI8 22-105, chain 2 of 2, further chain): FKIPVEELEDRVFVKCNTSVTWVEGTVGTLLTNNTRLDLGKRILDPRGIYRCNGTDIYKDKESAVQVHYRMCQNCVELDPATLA

Binder	Kd [1] [nM]	koff [1] [s⁻¹]	kon [1] [M⁻¹ s⁻¹]	Kd [2] [nM]	koff [2] [s⁻¹]	kon [2] [M⁻¹ s⁻¹]
SGN70-sp34.24HL (bispecific antibody, part only; not given: anti-CD70 Fab arm and Fc, not shown: another chain or arm of the molecule; a dimerising Fc or GST; large carriers; small tags and cut ends) scFv: EVQLVESGGGLVQPGGSLKLSCAASGFTFNTYAMNWVRQASGKGLEWVGRIRSKYNNYATYYADSVKDRFTISRDDSKSTLYLQMNSLKTEDTAVYYCARHGNFGQSYVSWFAYWGQGTTVTVSSGGGGSGGGGSGGGGSGGGGSQAVVTQEPSLTVSPGGTVTLTCRSSTGAVTTSNYANWVQQKPGQAPRGLIGGTNKRAPGVPARFSGSLLGDKAALTLLGAQPEDEAEYYCALWYSNLWVFGQGTKLTVL	179	0.0302	169000	110	0.029	265000
SGN70-sp34.87HL (bispecific antibody, part only; not given: anti-CD70 Fab arm and Fc, not shown: another chain or arm of the molecule; a dimerising Fc or GST) scFv: EVQLVESGGGLVQPGGSLKLSCAASGFTFNTYAMNWVRQASGKGLEWVGRIRSKYNNYATYYADSVKDRFTISRDDSKSTLYLQMNSLKTEDTAVYYCARHYNFGQSYVSWFAYWGQGTTVTVSSGGGGSGGGGSGGGGSGGGGSQAVVTQEPSLTVSPGGTVTLTCRSSTGAVTTSNYANWVQQKPGQAPRGLIGGTNKRAPGVPARFSGSLLGDKAALTLLGAQPEDEAEYYCALWYSNLWVFGQGTKLTVL	633	0.195	308000	501	0.253	504000
SGN70-sp34.24LH (bispecific antibody, part only; not given: anti-CD70 Fab arm and Fc, not shown: another chain or arm of the molecule; a dimerising Fc or GST; large carriers; small tags and cut ends) scFv: QAVVTQEPSLTVSPGGTVTLTCRSSTGAVTTSNYANWVQQKPGQAPRGLIGGTNKRAPGVPARFSGSLLGDKAALTLLGAQPEDEAEYYCALWYSNLWVFGQGTKLTVLGGGGSGGGGSGGGGSGGGGSEVQLVESGGGLVQPGGSLKLSCAASGFTFNTYAMNWVRQASGKGLEWVGRIRSKYNNYATYYADSVKDRFTISRDDSKSTLYLQMNSLKTEDTAVYYCARHGNFGQSYVSWFAYWGQGTTVTVSS	141	0.0158	113000	98	0.0146	150000
SGN70-sp34.87LH (bispecific antibody, part only; not given: anti-CD70 Fab arm and Fc, not shown: another chain or arm of the molecule; a dimerising Fc or GST) scFv: QAVVTQEPSLTVSPGGTVTLTCRSSTGAVTTSNYANWVQQKPGQAPRGLIGGTNKRAPGVPARFSGSLLGDKAALTLLGAQPEDEAEYYCALWYSNLWVFGQGTKLTVLGGGGSGGGGSGGGGSGGGGSEVQLVESGGGLVQPGGSLKLSCAASGFTFNTYAMNWVRQASGKGLEWVGRIRSKYNNYATYYADSVKDRFTISRDDSKSTLYLQMNSLKTEDTAVYYCARHYNFGQSYVSWFAYWGQGTTVTVSS	544	0.0466	85700	335	0.107	321000
SGN70-sp34.80LH (bispecific antibody, part only; not given: anti-CD70 Fab arm and Fc, not shown: another chain or arm of the molecule; a dimerising Fc or GST) scFv: QAVVTQEPSLTVSPGGTVTLTCRSSTGAVTTSNYANWVQQKPGQAPRGLIGGTNKRAPGVPARFSGSLLGDKAALTLLGAQPEDEAEYYCALWYSNLWVFGQGTKLTVLGGGGSGGGGSGGGGSGGGGSEVQLVESGGGLVQPGGSLKLSCAASGFTFNTAAMNWVRQASGKGLEWVGRIRSKYNNYATYYADSVKDRFTISRDDSKSTLYLQMNSLKTEDTAVYYCARHGNFGQSYVSWFAYWGQGTTVTVSS	6490	0.749	115000	4060	0.201	49700

The remaining lines, values ahead:

Kd [1] [nM]	koff [1] [s⁻¹]	kon [1] [M⁻¹ s⁻¹]	Kd [2] [nM]	koff [2] [s⁻¹]	kon [2] [M⁻¹ s⁻¹]	Binder
5500	0.705	128000	5200	0.416	79900	SGN70-sp34.97HL (bispecific antibody, part only; not given: anti-CD70 Fab arm and Fc, not shown: another chain or arm of the molecule; a dimerising Fc or GST) scFv: EVQLVESGGGLVQPGGSLKLSCAASGFTFNTYAMNWVRQASGKGLEWVGRIRSKAGGYATYYADSVKDRFTISRDDSKSTLYLQMNSLKTEDTAVYYCARHGNFGQSYVSWFAYWGQGTTVTVSSGGGGSGGGGSGGGGSGGGGSQAVVTQEPSLTVSPGGTVTLTCRSSTGAVTTSNYANWVQQKPGQAPRGLIGGTNKRAPGVPARFSGSLLGDKAALTLLGAQPEDEAEYYCALWYSNLWVFGQGTKLTVL
658	0.177	269000	480	0.167	347000	SGN70-sp34.101HL (bispecific antibody, part only; not given: anti-CD70 Fab arm and Fc, not shown: another chain or arm of the molecule; a dimerising Fc or GST; large carriers) scFv: EVQLVESGGGLVQPGGSLKLSCAASGFTFNTYAMNWVRQASGKGLEWVGRIRSKYNNYATYYADSVKDRFTISRDDSKSTLYLQMNSLKTEDTAVYYCARHGNFGQSAASWFAYWGQGTTVTVSSGGGGSGGGGSGGGGSGGGGSQAVVTQEPSLTVSPGGTVTLTCRSSTGAVTTSNYANWVQQKPGQAPRGLIGGTNKRAPGVPARFSGSLLGDKAALTLLGAQPEDEAEYYCALWYSNLWVFGQGTKLTVL
614	0.144	235000	409	0.119	290000	SGN70-sp34.101LH (bispecific antibody, part only; not given: anti-CD70 Fab arm and Fc, not shown: another chain or arm of the molecule; a dimerising Fc or GST; large carriers) scFv: QAVVTQEPSLTVSPGGTVTLTCRSSTGAVTTSNYANWVQQKPGQAPRGLIGGTNKRAPGVPARFSGSLLGDKAALTLLGAQPEDEAEYYCALWYSNLWVFGQGTKLTVLGGGGSGGGGSGGGGSGGGGSEVQLVESGGGLVQPGGSLKLSCAASGFTFNTYAMNWVRQASGKGLEWVGRIRSKYNNYATYYADSVKDRFTISRDDSKSTLYLQMNSLKTEDTAVYYCARHGNFGQSAASWFAYWGQGTTVTVSS
5220	0.333	63800	3110	0.253	81300	SGN70-sp34.97LH (bispecific antibody, part only; not given: anti-CD70 Fab arm and Fc, not shown: another chain or arm of the molecule; a dimerising Fc or GST) scFv: QAVVTQEPSLTVSPGGTVTLTCRSSTGAVTTSNYANWVQQKPGQAPRGLIGGTNKRAPGVPARFSGSLLGDKAALTLLGAQPEDEAEYYCALWYSNLWVFGQGTKLTVLGGGGSGGGGSGGGGSGGGGSEVQLVESGGGLVQPGGSLKLSCAASGFTFNTYAMNWVRQASGKGLEWVGRIRSKAGGYATYYADSVKDRFTISRDDSKSTLYLQMNSLKTEDTAVYYCARHGNFGQSYVSWFAYWGQGTTVTVSS
14600	0.217	14900	8060	0.993	123000	SGN70-sp34.99LH (bispecific antibody, part only; not given: anti-CD70 Fab arm and Fc, not shown: another chain or arm of the molecule; a dimerising Fc or GST) scFv: QAVVTQEPSLTVSPGGTVTLTCRSSTGAVTTSNYANWVQQKPGQAPRGLIGGTNKRAPGVPARFSGSLLGDKAALTLLGAQPEDEAEYYCALWYSNLWVFGQGTKLTVLGGGGSGGGGSGGGGSGGGGSEVQLVESGGGLVQPGGSLKLSCAASGFTFNTYAMNWVRQASGKGLEWVGRIRSKYNNYATYYADSVKDRFTISRDDSKSTLYLQMNSLKTEDTAVYYCARHGNAYQSYVSWFAYWGQGTTVTVSS
